Patent US20060134638, “Error reduction in automated gene synthesis” (Blue Heron Biotechnology, Inc., published 2006)

T1: MutS (TaqMutS) (Thermus aquaticus, UniProt Q56215 Q56215:1-811)
T1 sequence: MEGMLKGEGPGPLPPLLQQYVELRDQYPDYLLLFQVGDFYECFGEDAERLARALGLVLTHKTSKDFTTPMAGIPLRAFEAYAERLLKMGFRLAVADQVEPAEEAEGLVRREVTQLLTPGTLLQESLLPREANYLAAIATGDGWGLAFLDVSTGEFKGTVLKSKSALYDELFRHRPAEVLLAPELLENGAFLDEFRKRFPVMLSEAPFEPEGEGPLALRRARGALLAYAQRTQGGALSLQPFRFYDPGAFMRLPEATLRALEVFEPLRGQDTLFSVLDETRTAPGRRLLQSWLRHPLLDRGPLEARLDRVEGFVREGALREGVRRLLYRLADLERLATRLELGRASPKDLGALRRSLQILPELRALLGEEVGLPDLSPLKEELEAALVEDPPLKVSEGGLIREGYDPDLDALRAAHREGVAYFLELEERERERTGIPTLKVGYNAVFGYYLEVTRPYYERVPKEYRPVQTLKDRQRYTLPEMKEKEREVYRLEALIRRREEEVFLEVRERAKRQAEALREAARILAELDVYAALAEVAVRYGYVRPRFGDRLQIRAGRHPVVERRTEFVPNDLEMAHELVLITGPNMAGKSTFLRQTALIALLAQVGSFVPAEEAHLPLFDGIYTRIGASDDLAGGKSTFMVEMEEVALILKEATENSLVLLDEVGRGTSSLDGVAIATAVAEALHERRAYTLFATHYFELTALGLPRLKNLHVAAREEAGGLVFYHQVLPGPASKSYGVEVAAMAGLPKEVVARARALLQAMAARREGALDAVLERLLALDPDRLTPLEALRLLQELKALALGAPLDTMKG

B1: 410 bp AflIII/EcoRI homoduplex (pUC121) (dsDNA)
DNA 1: GAAGAGCGCCC
DNA 2: GGGCGCTCTTC

Columns and labels:
MutS (TaqMutS) [1] = biological target: T1, MutS (TaqMutS); conditions: error frequency 1/212 to 1/1593; 500 nM MutS, 40 nM DNA, 60 C
MutS (TaqMutS) [2] = biological target: T1, MutS (TaqMutS); assay: homoduplex recovered in flow-through; white:blue ratio shifted 1:1 to 60:1; conditions: chain copies: 2; perfect duplex
Method: The 410 bp white:blue test heteroduplex was used to determine the best conditions for separation of a model A or T deletion heteroduplex from perfectly matched homoduplex molecules using TaqMutS. A defined ratio of heteroduplex and homoduplex 410 bp fragments were incubated with TaqMutS at 60° C. for 20 minutes and subsequently passed through enzyme removal columns (Micropure-EZ enzyme removers from Millipore). These columns are marketed as quick alternatives to phenol/chloroform methods for removing proteins from DNA. The aim was to retain the TaqMutS protein bound to heteroduplex DNA in the column and retrieve the homoduplex DNA in the flow-through.

Molecule | activity (% errors removed) (MutS (TaqMutS) [1]) | binding result (MutS (TaqMutS) [2])
354 bp synthetic DNA, error-containing population | > 85 | 
B1 |  | no binding
